Data reported in article PMC1762320, “Separation of Anti-Proliferation and Anti-Apoptotic Functions of Retinoblastoma Protein through Targeted Mutations of Its A/B Domain” (PLoS ONE, 2006).

Molecular target: E2F1 induced in SAOS-2-tet-E2F1 cells (human, UniProt Q01094 1-437)
Experiment: cell-based or functional assay

Sequence of E2F1 induced in SAOS-2-tet-E2F1 cells (Q01094 whole entry): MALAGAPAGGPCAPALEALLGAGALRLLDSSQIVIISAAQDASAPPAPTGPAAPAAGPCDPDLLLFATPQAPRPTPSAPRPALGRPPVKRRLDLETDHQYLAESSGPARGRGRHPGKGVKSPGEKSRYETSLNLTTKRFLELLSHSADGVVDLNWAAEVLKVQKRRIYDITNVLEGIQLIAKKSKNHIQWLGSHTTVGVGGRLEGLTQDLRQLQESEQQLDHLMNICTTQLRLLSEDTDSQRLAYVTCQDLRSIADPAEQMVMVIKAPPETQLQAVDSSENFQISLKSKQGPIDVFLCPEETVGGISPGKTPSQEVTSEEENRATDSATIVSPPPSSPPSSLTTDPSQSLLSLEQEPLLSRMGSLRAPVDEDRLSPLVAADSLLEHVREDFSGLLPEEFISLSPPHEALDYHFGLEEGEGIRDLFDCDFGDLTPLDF

Gal4-Luc luciferase reporter in SAOS-2 cells co-transfected with Gal4-E2F1 (Gal4 DNA-binding domain and transactivation domain of E2F1) and RB: reduction of Gal4-E2F1 activity: 3 fold
B1: retinoblastoma protein RB (wild type, expressed in cells) (natural protein, human, UniProt P06400 1-928, looked up)
chain: MPPKTPRKTAATAAAAAAEPPAPPPPPPPEEDPEQDSGPEDLPLVRLEFEETEEPDFTALCQKLKIPDHVRERAWLTWEKVSSVDGVLGGYIQKKKELWGICIFIAAVDLDEMSFTFTELQKNIEISVHKFFNLLKEIDTSTKVDNAMSRLLKKYDVLFALFSKLERTCELIYLTQPSSSISTEINSALVLKVSWITFLLAKGEVLQMEDDLVISFQLMLCVLDYFIKLSPPMLLKEPYKTAVIPINGSPRTPRRGQNRSARIAKQLENDTRIIEVLCKEHECNIDEVKNVYFKNFIPFMNSLGLVTSNGLPEVENLSKRYEEIYLKNKDLDARLFLDHDKTLQTDSIDSFETQRTPRKSNLDEEVNVIPPHTPVRTVMNTIQQLMMILNSASDQPSENLISYFNNCTVNPKESILKRVKDIGYIFKEKFAKAVGQGCVEIGSQRYKLGVRLYYRVMESMLKSEEERLSIQNFSKLLNDNIFHMSLLACALEVVMATYSRSTSQNLDSGTDLSFPWILNVLNLKAFDFYKVIESFIKAEGNLTREMIKHLERCEHRIMESLAWLSDSPLFDLIKQSKDREGPTDHLESACPLNLPLQNNHTAADMYLSPVRSPKKKGSTTRVNSTANAETQATSAFQTQKPLKSTSLSLFYKKVYRLAYLRLNTLCERLLSEHPELEHIIWTLFQHTLQNEYELMRDRHLDQIMMCSMYGICKVKNIDLKFKIIVTAYKDLPHAVQETFKRVLIKEEEYDSIIVFYNSVFMQRLKTNILQYASTRPPTLSPIPHIPRSPYKFPSSPLRIPGGNIYISPLKSPYKISEGLPTPTKMTPRSRILVSIGESFGTSEKFQKINQMVCNSDRVLKRSAEGSNPPKPLKKLRFDIEGSDEADGSKHLPGESKFQQKLAEMTSTRTRMQKQKMNDSMDTSNKEEK
